Source: paper PMC5481743, “Cryptic indole hydroxylation by a non-canonical terpenoid cyclase parallels bacterial xenobiotic detoxification” (Nature Communications, 2017)
Values belong to the molecule of their own block, whether it stands above or below them.

Assays:
XiaF = target: T1, XiaF (Streptomyces sp. HKI0576, UniProt I7IIA9); assay: HPLC-HRMS biotransformation assay; format: biochemical; settings: 100 uM substrate, 500 uM NADH, 50 uM FAD, flavin reductase XiaP, pH 8.0, 28 °C
T1 construct: full-length (Met1-Leu397), N-terminal His-tag (pET-28b, thrombin-cleavable; pET-26b with MHHHHHH for crystals); from E. coli; homotetramer
T1 sequence (I7IIA9 entry or part of it): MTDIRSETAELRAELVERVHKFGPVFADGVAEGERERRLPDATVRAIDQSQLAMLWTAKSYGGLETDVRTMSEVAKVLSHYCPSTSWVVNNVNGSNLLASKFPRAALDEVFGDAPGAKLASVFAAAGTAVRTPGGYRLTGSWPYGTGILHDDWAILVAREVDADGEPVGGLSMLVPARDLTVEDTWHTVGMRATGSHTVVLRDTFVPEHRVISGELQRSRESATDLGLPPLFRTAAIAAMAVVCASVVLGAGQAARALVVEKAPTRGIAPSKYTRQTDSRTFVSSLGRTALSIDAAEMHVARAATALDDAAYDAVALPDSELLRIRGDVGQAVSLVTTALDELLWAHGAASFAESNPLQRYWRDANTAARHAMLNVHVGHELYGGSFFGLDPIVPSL

[1] = target: His-tagged XiaF (44.5 kDa, from pXU520) (Streptomyces sp. HKI0576); assay: SEC; HiLoad 16/600 Superdex 200 prep grade; 20 mM Tris-HCl pH 8.0, 100 mM NaCl; calibrated with Gel Filtration Calibration Kits
[2] = target: XiaF (recombinant, N-terminal histidine-tag, construct pET26b(+)-xiaF used for crystallization) (Streptomyces sp. HKI0576); assay: crystal structure; hanging drop vapour diffusion at 20 °C; XiaF apo (5LVU), with FADH2 (5LVW), with FADH2 and glycerol (5MR6); molecular replacement
[3] = target: untagged XiaF (42.4 kDa, tag cleaved with thrombin) (Streptomyces sp. HKI0576); assay: SEC; HiLoad 16/600 Superdex 200 prep grade; 20 mM Tris-HCl pH 8.0, 100 mM NaCl; calibrated with Gel Filtration Calibration Kits
[4] = target: the molecule itself; assay: SEC; HiLoad 16/600 Superdex 200 prep grade; 100 mM NaH2PO4, 100 mM Na2HPO4, 2% glycerol, pH 7.0

Molecule: C=C1CC[C@@H]2[C@](C)(CC[C@H](O)[C@@]2(C)C(=O)O)[C@H]1Cc1c[nH]c2ccccc12 [compound 2, indosespene]
HPLC-HRMS biotransformation assay (XiaF): we found that XiaP substantially increases the performance of XiaF

Molecule: untagged XiaF (42.4 kDa, tag cleaved with thrombin) (enzyme)
stoichiometry N [3]: 4

B1: His-tagged XiaP (enzyme, Streptomyces sp. HKI0576)
chain: MIDRETFVELMSGVCAPVTVVTTATADGRPHGSTVSSFTSLSLDPPLASFALDRGSGLLPHLHQGARVGVNILAAHQHALAASFARRCPGTGSKFDGITWTTRAGLPHLPDSAGWTAGRVERHVPGGDHVLLVISVEEAHSTPAAPLVYLRRSFGTYSGLPAGG
notes: XiaP, NADH:flavin oxidoreductase of Streptomyces sp; HKI0576; also called flavin reductase XiaP; flavoenzyme-reductase; source: E. coli BL21-CodonPlus(DE3)-RP (pET28c-xiaP), purified (Ni-NTA, SEC)
stoichiometry N [4]: 2

Further lines, results first:

stoichiometry N [1]: 4
Molecule: His-tagged XiaF (44.5 kDa, from pXU520) (enzyme)

stoichiometry N [2]: 4
Molecule: XiaF (recombinant, N-terminal histidine-tag, construct pET26b(+)-xiaF used for crystallization) (enzyme)
